In patent WO2014208760A1 (dated 2014):

T1: Control peptide
T1 construct: Coated on the ELISA plate at 10 ug/mL
T1 peptide: MNAANVGWNGSTFA

T2: 67LR 161-170 peptide
T2 construct: Synthetic peptide coated on the ELISA plate at 10 ug/mL; also called ESM peptide; EGCG sensing motif (ESM)
T2 peptide: IPCNNKGAHS


Legend:
Control peptide [1] = biological target: T1, Control peptide; experiment: ELISA, peptide coated at 10 ug/mL, done as for ESM-8
67LR 161-170 peptide = biological target: T2, 67LR 161-170 peptide; experiment: ELISA of hybridoma culture supernatant on coated 67LR 161-170 peptide
[2] = biological target: 67 kDa laminin receptor protein (human, UniProt P08865 2-295); experiment: cell-based or functional assay
Control peptide [3] = biological target: T1, Control peptide; experiment: ELISA, peptide coated at 10 ug/mL, HRP anti-mouse IgG, absorbance at 405 nm

Binder	binding result (Control peptide [1])	binding result (67LR 161-170 peptide)	acidic sphingomyelinase activity in HL60 cells (TLC of BODIPY-C12-sphingomyelin), relative to Control mIgG [2]	binding result (Control peptide [3])
ESM-16 antibody (ESM-16 monoclonal antibody) (antibody, V domains shown, Mouse hybridoma antibody; in flow cytometry it was detected with goat anti-mouse IgM and compared with Isotype Control mIgM, which points to IgM; also called monoclonal antibody ESM-16; EMS-16 antibody) VH: EVMLVESGGGLVKPGGSLKLSCAASGFTFSSYAMSWVRQTPEKRLEWVATISSGGSYTYYPDSVKGRFTISRDNAKNTLYLQMSSLRSEDTAMYYCARNWDLDYWGQGTTLTVSS VL: DIVMTQSPATLSVTPGDRVSLSCRASQSISDYLHWYQQKSHESPRLLIKYASQSISGIPSRFSGSGSGSDFTLSINSVEPEDVGVYYCQNGHSFPYTFGGGTKLEIK	no binding	binds	–	–
ESM-8 antibody (ESM-8 monoclonal antibody) (antibody, V domains shown, it was detected with anti-mouse IgG and compared with Control mIgG; also called monoclonal antibody ESM-8; EMS-8 antibody) VH: QVQLKQSGPGLVQPSQSLSITCTVSGFSLTTYGVHWVRQSPGKGLEWLGVIWSGGNTDYNAAFMSRLSISKDNSKSQVFFKMNSLRTTDTAIYYCARNSLLLPFDVWGAGTTVTVSS VL: DVVMTQTPLSLPVSLGDQASISCRSSQSLVHSNGYTYLHWYLQKPGQSPKLLIYKVSNRFSGVPDRFSGSASGTDFTLKISRVEAEDLGVYFCSQSTHVPWTFGGGTKLEIK	–	binds	~3 times	no binding
